Measured values as given in the supplement of paper PMC10567573.

B1: SPOPL (parent)
chain: YTGRAPNLDKMADNLLAAADKYAL

Variants of: B1
Assay: protein stability index of a GFP-peptide fusion (GPS, HEK-293T) (PSI 1-6); higher = more stable
Settings: c terminus: a fixed tail appended
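Note: lentivirally expressed fusions sorted by FACS into six bins by GFP to DsRed ratio, PSI derived from sequencing read proportions per bin multiplied by bin number.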

Variant	protein stability index
YTERAPNLDKMADNLLAAADKYAL [G3E]	2.94
YTIRAPNLDKMADNLLAAADKYAL [G3I]	1.86
YTDRAPNLDKMADNLLAAADKYAL [G3D]	3.99
YTCRAPNLDKMADNLLAAADKYAL [G3C]	1.64
YTNRAPNLDKMADNLLAAADKYAL [G3N]	2.83
YTWRAPNLDKMADNLLAAADKYAL [G3W]	2.88
YTYRAPNLDKMADNLLAAADKYAL [G3Y]	2.82
YTPRAPNLDKMADNLLAAADKYAL [G3P]	2.14
YTMRAPNLDKMADNLLAAADKYAL [G3M]	2.68
YTSRAPNLDKMADNLLAAADKYAL [G3S]	2.1
YTLRAPNLDKMADNLLAAADKYAL [G3L]	2.11
YTKRAPNLDKMADNLLAAADKYAL [G3K]	2.18
YTRRAPNLDKMADNLLAAADKYAL [G3R]	2.29
YTHRAPNLDKMADNLLAAADKYAL [G3H]	2.5
YTQRAPNLDKMADNLLAAADKYAL [G3Q]	2.7
YTFRAPNLDKMADNLLAAADKYAL [G3F]	1.93
YTVRAPNLDKMADNLLAAADKYAL [G3V]	2.62
YTTRAPNLDKMADNLLAAADKYAL [G3T]	1.94
YTGRAPNKDKMADNLLAAADKYAL [L8K]	2.16
YTGRAPNSDKMADNLLAAADKYAL [L8S]	1.83
YTGRAPNVDKMADNLLAAADKYAL [L8V]	3.88
YTGRAPNPDKMADNLLAAADKYAL [L8P]	3.29
YTGRAPNIDKMADNLLAAADKYAL [L8I]	1.85
YTGRAPNTDKMADNLLAAADKYAL [L8T]	2.55

Variant	protein stability index
YTGRAPNHDKMADNLLAAADKYAL [L8H]	2.38
YTGRAPNYDKMADNLLAAADKYAL [L8Y]	1.36
YTGRAPNGDKMADNLLAAADKYAL [L8G]	2.81
YTGRAPNCDKMADNLLAAADKYAL [L8C]	2.28
YTGRAPNRDKMADNLLAAADKYAL [L8R]	2.93
YTGRAPNMDKMADNLLAAADKYAL [L8M]	1.8
YTGRAPNDDKMADNLLAAADKYAL [L8D]	3
YTGRAPNQDKMADNLLAAADKYAL [L8Q]	2.58
YTGRAPNNDKMADNLLAAADKYAL [L8N]	2.94
YTGRAPNFDKMADNLLAAADKYAL [L8F]	1.9
YTGRAPNLRKMADNLLAAADKYAL [D9R]	1.2
YTGRAPNLVKMADNLLAAADKYAL [D9V]	3.1
YTGRAPNLCKMADNLLAAADKYAL [D9C]	1.99
YTGRAPNLEKMADNLLAAADKYAL [D9E]	2.24
YTGRAPNLPKMADNLLAAADKYAL [D9P]	2.36
YTGRAPNLQKMADNLLAAADKYAL [D9Q]	2.84
YTGRAPNLMKMADNLLAAADKYAL [D9M]	2.23
YTGRAPNLSKMADNLLAAADKYAL [D9S]	1.78
YTGRAPNLIKMADNLLAAADKYAL [D9I]	1.37
YTGRAPNLHKMADNLLAAADKYAL [D9H]	2.17
YTGRAPNLNKMADNLLAAADKYAL [D9N]	1.65
YTGRAPNLFKMADNLLAAADKYAL [D9F]	3.79
YTGRAPNLKKMADNLLAAADKYAL [D9K]	2.34
YTGRAPNLTKMADNLLAAADKYAL [D9T]	1.85

Variant	protein stability index
YTGRAPNLAKMADNLLAAADKYAL [D9A]	2.12
YTGRAPNLWKMADNLLAAADKYAL [D9W]	2.67
YTGLAPNLDKMADNLLAAADKYAL [R4L]	3.6
YTGVAPNLDKMADNLLAAADKYAL [R4V]	1.88
YTGKAPNLDKMADNLLAAADKYAL [R4K]	2.41
YTGPAPNLDKMADNLLAAADKYAL [R4P]	2.75
YTGNAPNLDKMADNLLAAADKYAL [R4N]	2.09
YTGGAPNLDKMADNLLAAADKYAL [R4G]	2.74
YTGCAPNLDKMADNLLAAADKYAL [R4C]	2.31
YTGIAPNLDKMADNLLAAADKYAL [R4I]	1.96
YTGHAPNLDKMADNLLAAADKYAL [R4H]	2.04
YTGQAPNLDKMADNLLAAADKYAL [R4Q]	2.86
YTGEAPNLDKMADNLLAAADKYAL [R4E]	3.04
YTGSAPNLDKMADNLLAAADKYAL [R4S]	2.77
YTGFAPNLDKMADNLLAAADKYAL [R4F]	2.12
YTGDAPNLDKMADNLLAAADKYAL [R4D]	3
YTGAAPNLDKMADNLLAAADKYAL [R4A]	2.38
YTGMAPNLDKMADNLLAAADKYAL [R4M]	1.69
YTGYAPNLDKMADNLLAAADKYAL [R4Y]	2.02
YTGTAPNLDKMADNLLAAADKYAL [R4T]	1.84
YTGRAPNLDKMAHNLLAAADKYAL [D13H]	1.75
YTGRAPNLDKMANNLLAAADKYAL [D13N]	2.46
YTGRAPNLDKMAINLLAAADKYAL [D13I]	2.42
YTGRAPNLDKMAMNLLAAADKYAL [D13M]	2.12

Variant	protein stability index
YTGRAPNLDKMAQNLLAAADKYAL [D13Q]	1.91
YTGRAPNLDKMAKNLLAAADKYAL [D13K]	1.68
YTGRAPNLDKMAFNLLAAADKYAL [D13F]	1.87
YTGRAPNLDKMAANLLAAADKYAL [D13A]	1.34
YTGRAPNLDKMAPNLLAAADKYAL [D13P]	2.2
YTGRAPNLDKMACNLLAAADKYAL [D13C]	2.17
YTGRAPNLDKMAGNLLAAADKYAL [D13G]	3.29
YTGRAPNLDKMALNLLAAADKYAL [D13L]	1.81
YTGRMPNLDKMADNLLAAADKYAL [A5M]	1.51
YTGRRPNLDKMADNLLAAADKYAL [A5R]	1.74
YTGRNPNLDKMADNLLAAADKYAL [A5N]	3
YTGRVPNLDKMADNLLAAADKYAL [A5V]	1.78
YTGRSPNLDKMADNLLAAADKYAL [A5S]	2.33
YTGRPPNLDKMADNLLAAADKYAL [A5P]	2
YTGRCPNLDKMADNLLAAADKYAL [A5C]	1.87
YTGRLPNLDKMADNLLAAADKYAL [A5L]	1.77
YTGREPNLDKMADNLLAAADKYAL [A5E]	3.58
YTGRWPNLDKMADNLLAAADKYAL [A5W]	4.42
YTGRKPNLDKMADNLLAAADKYAL [A5K]	2.01
YTGRIPNLDKMADNLLAAADKYAL [A5I]	1.58
YTGRQPNLDKMADNLLAAADKYAL [A5Q]	2.48
YTGRGPNLDKMADNLLAAADKYAL [A5G]	1.93
